Test results from US20240165209A1, “PLACENTAL ALKALINE PHOSPHATASE FOR REDUCING THE LOSS OF RED BLOOD CELLS, WHITE BLOOD CELLS, AND PLATELETS IN CHEMOTHERAPY TREATED CANCER PATIENTS” (ZOLTAN LABORATORIES, LLC, priority 2021, published 2024).

Experiments:
bone marrow MSCs = assay: DNA synthesis ([3H]thymidine incorporation) in MSCs; type: cell-based, human; settings: 20 hours
From the text: For the experiment, bone marrow aspirates were taken from normal human adult donors after informed consent. For the preparation of bone marrow MSCs, essentially a widely used technique was used as described earlier by others [Pittenger, M. F., Mackay, A. M., Beck, S. C., et al. (1999) Multilineage potential of adult human mesenchymal stem cells. Science 284, 143-147]. Briefly, nucleated cells were isolated with a pre-prepared commercial density gradient (Lymphoprep, Nycomed, Pharma, Oslo, Norway) and re-suspended in Dulbecco's modified Eagle's medium (DMEM) (GIBCO, Grand Island, NY) supplemented with 10% fetal calf serum (FCS), 50 U/ml of penicillin, and 50 μg/ml of streptomycin (GIBCO). All nucleated cells were plated in 25-cm^2 flasks (BD Falcon, Bedford, MA) at 37° C. in humidified atmosphere containing 5% CO2. After 24 hours, non-adherent cells were removed and cryopreserved in liquid nitrogen until use. The remaining adherent cells were thoroughly washed with Hanks balanced salt solution (HBSS) (GIBCO). Fresh complete culture medium was added and replaced every 3 or 4 days (twice a week). When cells grew to about 80% confluence, they were suspended and harvested by incubating with a ready-made solution containing 0.25% trypsin and 1 mM EDTA (Sigma-Aldrich, St. Louis, MO) for 5 minutes at 37° C.; this cell suspension is designated as passage 1. These cells were further expanded with 1:3-1:5 splitting in 175-cm^2 flasks (BD Falcon). For the determination of DNA synthesis, cells were divided into 12-well plates in the complete medium and let the cells grow to about 60% confluence. After changing the spent medium for fresh complete medium (i.e., containing 10% fetal calf serum), cells were treated for 20 hours with 20-100 μM ATP and/or 200 nM PLAP as well as 50-200 μM Cyp in the absence or presence of 200 nM PLAP. For labeling newly formed DNA, cells received 1,130,000 d.p.m. [^3H] thymidine for the last 4 hours of the treatment period. DNA synthesis was determined as described earlier [She, Q.-B., Mukherjee, J. J., Huang, J.-S., Crilly, K. S. and Kiss, Z. (2000) Growth factor-like effects of placental alkaline phosphatase in human fetus and mouse embryo fibroblasts. FEBS Lett. 469, 163-167]. The data is expressed as d.p.m. [^3H] thymidine incorporated into DNA/well (n=3).

[1] = amifostine treatment, intravenous route, cancer patients; cited from earlier work
[2] = Spectrophotometric assay of PLAP enzyme activity (hydrolysis of 4-nitrophenylphosphate); type: biochemical; settings: 22° C., pH 9.8, 10 mM 4-nitrophenylphosphate
From the text: Human PLAP (Type XXIV, 1020 units of total activity) in a partially purified form was obtained commercially from Sigma-Aldrich. A butanol extraction of placental tissue performed by Sigma-Aldrich to obtain the partially purified material was followed by chromatography steps as described in [Chang, T.-C., Huang, S.-M, Huang, T.-M. and Chang, G.-G. Human placental alkaline phosphatase: An improved purification procedure and kinetic studies. Eur. J. Biochem. 209, 241-247, 1992] to obtain an essentially pure preparation of PLAP as determined by sodium dodecyl sulfate-polyacrylamide gel electrophoresis (SDS-PAGE). The enzyme activity of PLAP was assayed using a spectroscopic method to monitor the hydrolysis of 4-nitrophenylphosphate (as an increase in absorbance at 410 nm) at room temperature (22° C.) as described in [Chang, G.-G., Shiao, M.-S., Lee, K.-R. and Wu, J.-J., Modification of human placental alkaline phosphatase by periodate-oxidized 1,N6-ethenoadenosine monophosphate. Biochem. J., 272, 683-690, 1990]. Activity analysis of 5-10-μg purified enzyme was performed in 1 mL incubation volume containing 50 mM Na2CO3/NaHCO3, 10 mM MgCl2, 10 mM 4-nitrophenylphosphate at pH 9.8. The extinction coefficient of 4-nitrophenol was taken as 1.62×10^4 M^−1 cm^−1. An enzyme activity of 1 U (unit) is defined as 1 μmole substrate hydrolyzed per 1 min at 22° C. at pH 9.8. […]

[3] = test system: mouse bone marrow-derived hematopoietic stem cells (HSCs); settings: 3 days
Method: Bone marrow was harvested by flushing bones from female C57/BL/6 mice in Fischer medium (Thermo Fisher Scientific; catalogue no. 21475025) containing 20% horse serum (Hyclone, Logan, UT), 100 Unit/ml penicillin, […] streptomycin (Gibco, BRL), 0.015 fungizone (Gibco, BRL), and 0.1 μM hydrocortisone sodium succinate (SynoPharm; Hamburg, Germany). Pooled stem cells were seeded into 25 cm 3 flasks (10 ml cell suspension) and after 3 days of incubation at 33° C. in 5% CO2 in air in the absence of PLAP, they were plated into 12-well plates and were incubated in the absence (n=8) or presence of 50 μg/ml PLAP (n=8) for additional 3 days.
In a follow up experiment with hematopoietic stem cells, the same incubation medium in 12-well plates contained either no other addition (n=8) or contained 200 μM Cyp without (n=8) or with 50 μg/ml PLAP (n=8) for 3 days.

[4] = purified PLAP; cited from earlier work

## Nc1ncnc2c1ncn2[C@@H]1O[C@H](COP(=O)(O)OP(=O)(O)OP(=O)(O)O)[C@@H](O)[C@H]1O [ATP]
Bone marrow MSCs; ATP 20 μM, no PLAP
  d.p.m. [^3H] thymidine incorporated into DNA/well: 70,738 ± 1,367 d.p.m.
Bone marrow MSCs; ATP 50 μM, no PLAP
  d.p.m. [^3H] thymidine incorporated into DNA/well: 55,808 ± 1,480 d.p.m.
Bone marrow MSCs; ATP 100 μM, no PLAP
  d.p.m. [^3H] thymidine incorporated into DNA/well: 38,601 ± 1,940 d.p.m.

## NCCCNCCSP(=O)(O)O [amifostine]
[1]
  patients with reversible clinical hypotension, protracted nausea and vomiting: 15-20%

B1: PLAP: highly purified native placental alkaline phosphatase derived from human placenta via conventional purification methods (protein, UniProt P05187 23-506, looked up)
Alkaline phosphatase, …: IIPVEEENPDFWNREAAEALGAAKKLQPAQTAAKNLIIFLGDGMGVSTVTAARILKGQKKDKLGPEIPLAMDRFPYVALSKTYNVDKHVPDSGATATAYLCGVKGNFQTIGLSAAARFNQCNTTRGNEVISVMNRAKKAGKSVGVVTTTRVQHASPAGTYAHTVNRNWYSDADVPASARQEGCQDIATQLISNMDIDVILGGGRKYMFRMGTPDPEYPDDYSQGGTRLDGKNLVQEWLAKRQGARYVWNRTELMQASLDPSVTHLMGLFEPGDMKYEIHRDSTLDPSLMEMTEAALRLLSRNPRGFFLFVEGGRIDHGHHESRAYRALTETIMFDDAIERAGQLTSEEDTLSLVTADHSHVFSFGGYPLRGSSIFGLAPGKARDRKAYTVLLYGNGPGYVLKDGARPDVTESESGSPEYRQQSAVPLDEETHAGEDVAVFARGPQAHLVHGVQEQTFIAHVMAFAACLEPYTACDLAPPAGTTD
[2]
  specific activity of purified PLAP: 685 Units per mg protein
Bone marrow MSCs; PLAP 200 nM + ATP 20 μM
  d.p.m. [^3H] thymidine incorporated into DNA/well: 90,708 ± 2,518 d.p.m.
Bone marrow MSCs; PLAP 200 nM + ATP 50 μM
  d.p.m. [^3H] thymidine incorporated into DNA/well: 84,740 ± 3,231 d.p.m.
Bone marrow MSCs; PLAP 200 nM + ATP 100 μM
  d.p.m. [^3H] thymidine incorporated into DNA/well: 80,916 ± 2,252 d.p.m.
Bone marrow MSCs; PLAP 200 nM + Cyp 50 μM
  d.p.m. [^3H] thymidine incorporated into DNA/well: 81,887 ± 3,173 d.p.m.
Bone marrow MSCs; PLAP 200 nM + Cyp 200 μM
  d.p.m. [^3H] thymidine incorporated into DNA/well: 74,798 ± 2,408 d.p.m.
Bone marrow MSCs; PLAP 200 nM, no ATP
  d.p.m. [^3H] thymidine incorporated into DNA/well: 89,865 ± 2,021 d.p.m.
[3]; 50 μg/ml PLAP, no Cyp
  change of the number of hematopoietic stem cells: did not significantly change
[3]; 200 μM Cyp, presence of 50 μg/ml PLAP
  decrease of the number of cells by Cyp: 10%
[4]
  half-life time in human circulation: about 7 days
